To fix the notation:
B1: human MCM8–9 complex, wild type (FLAG-MCM8 with MBP-MCM9, co-expressed) (complex)
chain 1: MNGEYRGRGFGRGRFQSWKRGRGGGNFSGKWREREHRPDLSKTTGKRTSEQTPQFLLSTKTPQSMQSTLDRFIPYKGWKLYFSEVYSDSSPLIEKIQAFEKFFTRHIDLYDKDEIERKGSILVDFKELTEGGEVTNLIPDIATELRDAPEKTLACMGLAIHQVLTKDLERHAAELQAQEGLSNDGETMVNVPHIHARVYNYEPLTQLKNVRANYYGKYIALRGTVVRVSNIKPLCTKMAFLCAACGEIQSFPLPDGKYSLPTKCPVPVCRGRSFTALRSSPLTVTMDWQSIKIQELMSDDQREAGRIPRTIECELVHDLVDSCVPGDTVTITGIVKVSNAEEGSRNKNDKCMFLLYIEANSISNSKGQKTKSSEDGCKHGMLMEFSLKDLYAIQEIQAEENLFKLIVNSLCPVIFGHELVKAGLALALFGGSQKYADDKNRIPIRGDPHILVVGDPGLGKSQMLQAACNVAPRGVYVCGNTTTTSGLTVTLSKDSSSGDFALEAGALVLGDQGICGIDEFDKMGNQHQALLEAMEQQSISLAKAGVVCSLPARTSIIAAANPVGGHYNKAKTVSENLKMGSALLSRFDLVFILLDTPNEHHDHLLSEHVIAIRAGKQRTISSATVARMNSQDSNTSVLEVVSEKPLSERLKVVPGETIDPIPHQLLRKYIGYARQYVYPRLSTEAARVLQDFYLELRKQSQRLNSSPITTRQLESLIRLTEARARLELREEATKEDAEDIVEIMKYSMLGTYSDEFGNLDFERSQHGSGMSNRSTAKRFISALNNVAERTYNNIFQFHQLRQIAKELNIQVADFENFIGSLNDQGYLLKKGPKVYQLQTM
chain 2: not shown
notes: human MCM8; human MCM9; Written as the heterodimer (theoretical 266 kDa with tags; hexamer 798 kDa); in solution a mix of dimers, tetramers and hexamers; also called MCM8-MCM9; FLAG-MCM8-MBP-MCM9 heterodimer complex; source: Sf9 insect cells, co-expressed; hexamer-rich pool with a Superose 6 step) or captured from lysate on amylose resin and washed; not shown: FLAG, N-terminal, kept; MBP, …
B2: HROB-L405D (natural protein, human, UniProt Q8N3J3-4 1-646, looked up)
chain: MACSLQKLFAVEEEFEDEDFLSAVEDAENRFTGSLPVNAGRLRPVSSRPQETVQAQSSRLLLLHPTAPSEALGLPDLDLCLPASSTPSADSRPSCIGAAPLRPVSTSSSWIGNQRRVTVTEVLREPARPQSSALHPLLTFESQQQQVGGFEGPEQDEFDKVLASMELEEPGMELECGVSSEAIPILPAQQREGSVLAKKARVVDLSGSCQKGPVPAIHKAGIMSAQDESLDPVIQCRTPRPPLRPGAVGHLPVPTALTVPTQQLHWEVCPQRSPVQALQPLQAARGTIQSSPQNRFPCQPFQSPSSWLSGKAHLPRPRTPNSSCSTPSRTSSGLFPRIPLQPQAPVSSIGSPVGTPKGPQGALQTPIVTNHLVQLVTAASRTPQQPTHPSTRAKTRRFPGPAGIDPHQQSGRSLEDIMVSAPQTPTHGALAKFQTEIVASSQASVEEDFGRGPWLTMKSTLGLDERDPSCFLCTYSIVMVLRKAALKQLPRNKVPNMAVMIKSLTRSTMDASVVFKDPTGEMQGTVHRLLLETCQNELKPGSVLLLKQIGVFSPSLRNHYLNVTPNNLVHIYSPDSGDGSFLKPSQPFPKDSGSFQHDVAAKPEEGFRTAQNLEAEASPEEELPEADDLDGLLSELPEDFFCGTSS
notes: human HROB as in m1 (closest to isoform 4, lacks Q-484, T126P) with L405D in the disordered region that contacts MCM8

Data set [1] concerns the molecule itself. In words: negative staining transmission electron microscopy; human MCM8–9 at 220 nM; ring-like particles, heterodimers to hexameric rings.
Data set [2] has as its target B1. In words: pull-down; MBP-MCM9/FLAG-MCM8 from Sf9 lysate immobilised on amylose resin and washed (300 mM NaCl, 0.1% NP40); incubated with 1 μg purified HROB wild type or mutant in 50 mM Tris-HCl pH 7.5, 100 mM NaCl, 3 mM EDTA, BSA, 1 h at 4 °C; maltose elution, western blot. The following applies: both partners purified. (In general: In western blotting, separated proteins are transferred to a membrane and probed.)

On to B1, for which the binding result in data set [1] was “binds”.
Take B2: the binding result in data set [2] is given as “binds”.

For the origin of these results see article PMC10350107, “Mechanism of DNA unwinding by hexameric MCM8–9 in complex with HROB” (Research Square, 2023).
